Results on one molecule are retold here after CN106914229A.

In assay [1] the target is Myc-GST融合蛋白(Myc标签与谷胱甘肽融合的蛋白). The assay can be described thus: ELISA on coated Myc-GST (5 μg/mL), anti-His-HRP detection, heat tolerance test at 70℃. A general note: An ELISA detects its analyte on a solid surface through an enzyme-linked reagent.
In assay [2] the target is Myc-GST融合蛋白(Myc标签与谷胱甘肽融合的蛋白). Put plainly: ELISA on coated Myc-GST (5 μg/mL), anti-His-HRP detection, heat tolerance test at 90℃.
The target of assay [3] is Myc-GST融合蛋白(Myc标签与谷胱甘肽融合的蛋白). Put plainly: ELISA on coated Myc-GST (5 μg/mL), anti-His-HRP detection, heat tolerance test at 80℃.

B1: 抗c-Myc标签单域重链抗体 (VHH)
VHH: QLQLVESGGGSVQPGGSLTLSCSASGFNISQYSVGWFREAPGEEREGISCLDIDGKITTFSDAIQGRFTIARDNAANMIYLHMDALNPLDTAVYRCVARWDCSRHDFITQKTATGIWGPGTQVTVSA
Consider B1, for which the values for the OD450 in assay [1], in assay [2] and in assay [3] were 1.5 OD450, 1.1 OD450 and 1.3 OD450, respectively.
